What was measured:
Type in all cases: cell-based
[1] = Emission intensity of luciferase-expressing HeLa S3 cells with D-luciferin; settings: for relative emission intensity, Dluc: emission intensity of D-luciferin defined as 1
Description: (§1) A plasmid pcDNA3 was treated with use of BamHI and EcoRI, and genes encoding the respective luciferases above were each inserted into the plasmid pcDNA3 to produce plasmids for transfection.
(§2) HeLa S3 cells were used as mammalian cells to be transfected. For each of the luciferases above, HeLa S3 cells which had been cultured in D-MEM (low glucose, containing 10% FBS and 1% penicillin streptomycin, Wako Pure Chemical Industries, Ltd.) and were in an 80% confluent state were mixed with a transfection reagent (Polyethylenimine, Linear (MW 25,000, Polysciences, Inc)) and the plasmid for transfection (0.3 μg) to conduct transfection.
(§3) 24 hours after the transfection, the cells were dissociated through trypsinization, and were suspended in DMEM/F12 (10% FBS, gibco). Subsequently, centrifugation was conducted to remove the supernatant, and then the cells were resuspended in 1 mL DMEM/F12 so as to be used as luciferase-expressing cells.
(§4) In 1.5 mL Eppendorf tube, 20 μL of the produced luciferase-expressing cells and 80 μL of a substrate solution (prepared with pH 7.4 PBS) were mixed, and light emission from the obtained mixture was measured for one minute (with use of a luminometer AB-2280 manufactured by ATTO Corporation). An integrated value of the values thus measured within one minute was defined as the emission intensity.
(§5) As the substrate solution, AkaLumine or D-luciferin (80 μM each) was added. Results of the measurement of emission intensity are shown below in Table 2 as relative values with respect to 1.0 which is an emission intensity obtained in a case where AkaLumine was added to a sample of luc2.
(§6) Subsequently, with use of D-luciferin, AkaLumine, AkaLumine-OH, 6-AkaLumine, 0-AkaLumine, monoene NMe2, monoene NH2, monoene OH, and biphenyl as substrates, specificity to each of these substrates was evaluated. The substrates are respectively represented by the following chemical formulae. Each substrate solution contains a single kind of substrate.
(§7) Tables 3 through 8 show results of relative emission intensities in a case where the emission intensity of D-luciferin is defined as 1.

[2] = Emission intensity of luciferase-expressing HeLa S3 cells with monoene NMe2; settings: emission intensity of D-luciferin defined as 1
Description: as §1, §2, §3, §4, §6, §7

[3] = Emission intensity of luciferase-expressing HeLa S3 cells with AkaLumine-OH; settings: emission intensity of D-luciferin defined as 1
Description: as §1, §2, §3, §4, §6, §7

[4] = Emission intensity of luciferase-expressing HeLa S3 cells with biphenyl; settings: emission intensity of D-luciferin defined as 1
Description: as §1, §2, §3, §4, §6, §7

[5] = Emission intensity of luciferase-expressing HeLa S3 cells with monoene NH2; settings: emission intensity of D-luciferin defined as 1
Description: as §1, §2, §3, §4, §6, §7

[6] = Emission intensity of luciferase-expressing HeLa S3 cells with monoene OH; settings: emission intensity of D-luciferin defined as 1
Description: as §1, §2, §3, §4, §6, §7

[7] = Emission intensity of luciferase-expressing HeLa S3 cells with AkaLumine; settings: for relative emission intensity, AKA: emission intensity of D-luciferin defined as 1
Description: as §1, §2, §3, §4, §5, §6, §7

[8] = Emission intensity of luciferase-expressing HeLa S3 cells with 6-AkaLumine; settings: emission intensity of D-luciferin defined as 1
Description: as §1, §2, §3, §4, §6, §7

[9] = Emission intensity of luciferase-expressing HeLa S3 cells with 0-AkaLumine; settings: emission intensity of D-luciferin defined as 1
Description: as §1, §2, §3, §4, §6, §7

Row | Molecule | relative emission intensity, Dluc [1] | D-luciferin emission intensity, relative value ([1]; relative to 1.0 = emission intensity of luc2 with AkaLumine, 80 μM substrate, integrated over one minute) | relative emission intensity, monoNMe2 [2] | relative emission intensity, AKA-OH [3] | relative emission intensity, biph [4] | relative emission intensity, monoNH2 [5] | relative emission intensity, monoOH [6] | relative emission intensity, AKA ([7]; HeLa S3 cells) | AkaLumine/D-luciferin ([7]; ratio of relative emission intensities, Table 2) | AkaLumine emission intensity, relative value ([7]; relative to 1.0 = emission intensity of luc2 with AkaLumine, 80 μM substrate, integrated over one minute, HeLa S3 cells) | relative emission intensity, 6-AKA [8] | relative emission intensity, O-AKA [9]
1 | Luc2: luciferase derived from Photinus pyralis consisting of an amino acid sequence represented by SEQ ID NO: 1 (protein, listed as Photinus pyralis) MEDAKNIKKGPAPFYPLEDGTAGEQLHKAMKRYALVPGTIAFTDAHIEVDITYAEYFEMSVRLAEAMKRYGLNTNHRIVVCSENSLQFFMPVLGALFIGVAVAPANDIYNERELLNSMGISQPTVVFVSKKGLQKILNVQKKLPIIQKIIIMDSKTDYQGFQSMYTFVTSHLPPGFNEYDFVPESFDRDKTIALIMNSSGSTGLPKGVALPHRTACVRFSHARDPIFGNQIIPDTAILSVVPFHHGFGMFTTLGYLICGFRVVLMYRFEEELFLRSLQDYKIQSALLVPTLFSFFAKSTLIDKYDLSNLHEIASGGAPLSKEVGEAVAKRFHLPGIRQGYGLTETTSAILITPEGDDKPGAVGKVVPFFEAKVVDLDTGKTLGVNQRGELCVRGPMIMSGYVNNPEATNALIDKDGWLHSGDIAYWDEDEHFFIVDRLKSLIKYKGYQVAPAELESILLQHPNIFDAGVAGLPDDDAGELPAAVVVLEHGKTMTEKEIVDYVASQVTTAKKLRGGVVFVDEVPKGLTGKLDARKIREILIKAKKGGKIAV | 1.0 | 5.5 × 10^−1 | 1.1 × 10^−1 | not detected | 1.4 × 10^−2 | 3.0 × 10^−3 | 1.8 × 10^−3 | 2.6 × 10^−1 | 1.8 | 1.0 | 1.6 × 10^−1 | 8.4 × 10^−3
2 | N229H_S347N: luc2 variant with N229H and S347N mutations (SEQ ID NO: 3) (protein, Modified Luciferase) MEDAKNIKKGPAPFYPLEDGTAGEQLHKAMKRYALVPGTIAFTDAHIEVDITYAEYFEMSVRLAEAMKRYGLNTNHRIVVCSENSLQFFMPVLGALFIGVAVAPANDIYNERELLNSMGISQPTVVFVSKKGLQKILNVQKKLPIIQKIIIMDSKTDYQGFQSMYTFVTSHLPPGFNEYDFVPESFDRDKTIALIMNSSGSTGLPKGVALPHRTACVRFSHARDPIFGHQIIPDTAILSVVPFHHGFGMFTTLGYLICGFRVVLMYRFEEELFLRSLQDYKIQSALLVPTLFSFFAKSTLIDKYDLSNLHEIASGGAPLSKEVGEAVAKRFHLPGIRQGYGLTETTNAILITPEGDDKPGAVGKVVPFFEAKVVDLDTGKTLGVNQRGELCVRGPMIMSGYVNNPEATNALIDKDGWLHSGDIAYWDEDEHFFIVDRLKSLIKYKGYQVAPAELESILLQHPNIFDAGVAGLPDDDAGELPAAVVVLEHGKTMTEKEIVDYVASQVTTAKKLRGGVVFVDEVPKGLTGKLDARKIREILIKAKKGGKIAV | 1.0 | – | – | 0.9 | 4.9 | 4.3 × 10^−1 | not detected | 1.7 × 10^3 | – | – | 8.5 × 10^2 | 6.3
